# Results reported in patent publication US20230110188A1 (ARGENX IIP, published 2023).
# Positions count from the first letter of the chain named.
# T1: Human MuSK (R&D Systems, cat. 10189-MK, histidine tag) (human, UniProt O15146 24-495)
# T1 construct: Bought protein; also called human monomeric MuSK-6xhis; not shown: histidine tag (6xhis)
# T1 sequence: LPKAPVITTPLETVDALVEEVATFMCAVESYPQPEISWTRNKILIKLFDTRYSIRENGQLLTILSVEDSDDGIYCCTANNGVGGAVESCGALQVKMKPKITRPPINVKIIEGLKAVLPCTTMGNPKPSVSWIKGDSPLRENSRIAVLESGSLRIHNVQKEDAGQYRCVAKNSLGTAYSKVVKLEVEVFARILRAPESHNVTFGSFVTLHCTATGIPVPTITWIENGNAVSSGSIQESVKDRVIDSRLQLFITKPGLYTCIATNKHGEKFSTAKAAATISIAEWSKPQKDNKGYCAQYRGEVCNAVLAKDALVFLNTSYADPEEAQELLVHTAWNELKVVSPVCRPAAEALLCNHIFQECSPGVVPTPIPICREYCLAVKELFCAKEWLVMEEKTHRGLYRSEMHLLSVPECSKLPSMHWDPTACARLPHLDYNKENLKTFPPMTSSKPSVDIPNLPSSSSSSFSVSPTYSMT
# T2: human monomeric MuSK FLAG streptavidin (in house produced, batch 27-6-2019) (human, UniProt O15146 24-495)
# T2 construct: also called full length MuSK; not shown: FLAG and streptavidin tags
# T2 sequence: T1 sequence
# B1: 3D10a (antibody, human IgG1, kappa, L234A L235A, V domains shown)
# VH: EVQLVESGGGLVKPGGSLRLSCAASGFTFSASTMAWVRQAPGKGLEWVSSVSGDSHHIYYADSLKGRFTISRDNAKNSLYLQMNSLRAEDTAVYYCARERLLRLGVGFDSWGQGTLVTVSS
# VL: DIQMTQSPSSLSASVGDRVTITCRASQRISGFVNWYQQKPGKAPKLLIYAASTLQSGVPSRFSGSGSGTDFTLTISSLQPEDFATYYCQQSYSPLYTFGQGTKLEIKR
# B2: 3F6c (antibody, human IgG1, kappa, L234A L235A, V domains shown)
# VH: EVQLVESGGGLVKPGGSLRLSCAASGFTFSSYTMDWVRQAPGKGLEWVSSIGSNGDYIYYADSVRGRFTISRDNAKNSLYLQMNSLRAEDTAVYYCARGQLAVAGTHFDYWGQGTLVTVSS
# VL: B1 VL with R28K, I29V, S30N, G31K, F32Y, Y96S
# B3: 4D3 (antibody, human IgG1, kappa, L234A L235A, V domains shown)
# VH: B1 VH with A31S, S32Y, A35T, V51I, G53S, D54G, S55G, H57Y, A61T, S110F
# VL: B1 VL with R28S, F32Y, V33L, P94A
# B4: 3D9b (antibody, human IgG1, kappa, L234A L235A, V domains shown)
# VH: EVQLVESGGGLVKPGGSLRLSCAASGFTFSTYTMHWVRQAPGKGLEWVSSISSRSAYKYYADSVKGRFTISRDNAKNSLYLQMNSLRAEDTAVYYCARDFFQLGPPRFDSWGQGTLVTVSS
# VL: B1 VL with G31S, V33L, A50G, T53N, L95S
# Target: T1, Human MuSK (R&D Systems, cat. 10189-MK, …)
# Test: SPR (Biacore), koff at pH 5.5 over koff at pH 7.4
# From the text: (§1) In order to study pH dependent binding of our antibodies to MuSK, the Biacore was used with the same setup as described in the paragraph entitled “Binding affinity for mouse, human and rhesus monkey recombinant MuSK in Biacore”. 6. […] For the other antibodies there is no real difference observed between pH 7.4 and 5.5.
row,Fold difference (5.5/7.4) of koff [fold],Binder
1,0.6,B1
2,2.5,B2
3,1.1,B3
4,0.3,B4

# Target: T1, Human MuSK (R&D Systems, cat. 10189-MK, …)
# Test: SPR (Biacore), antibody captured on anti-hFc chip; 5 nM; dissociation pH 5.5
# From the text: as §1
row,koff [s⁻¹],Binder
1,0.0001,B1
2,0.0002,B2
3,0.00018,B3
4,4e-05,B4

# Target: T1, Human MuSK (R&D Systems, cat. 10189-MK, …)
# Test: SPR (Biacore), pH 7.4 (summary table, repeats the average of Table 16); pH 7.4
# From the text: as §1
row,koff [s⁻¹],Binder
1,0.00016,B1

# Target: T2, human monomeric MuSK FLAG streptavidin …
# Test: epitope binning ELISA (coated anti-MuSK Fab, MuSK, IgG, anti-Fc HRP); competitor: 4D3
# Experimental: (§2) For epitope binning—An ELISA plate was coated at 1 μg/ml of the anti-MuSK Fabs and incubated overnight at 4° C. Next, the plate was wash with PBS followed by blocking with 1% casein in PBS for one hour. After washing the plate, 1 μg/ml of human monomeric MuSK (in house produced, batch 27-6-2019) was incubated for one hour at RT. The plate was washed and anti-MuSK antibodies at 0.3-10 μg/ml were added to the plate and incubated for one hour at RT. After washing the plate, detection antibody (goat anti-human Fc HRP (Jackson Immunoresearch cat. 109-035-098)) was added at 5000 fold dilution in PBS 0.1% casein. The plate was incubated for one hour at RT and washed with PBS-T. TMB was added and the reaction was stopped by adding H2504. […]
# (§3) For the epitope binning ELISA, a plate was coated with anti-MuSK Fab and human monomeric MuSK was added after blocking the plate. Next the different antibodies were added and allowed to bind.
row,OD 450 nm [OD],Binder
1,0.062,B1
2,0.076,B2
3,0.023,B3
4,0.086,B4

# Target: T2, human monomeric MuSK FLAG streptavidin …
# Test: epitope binning ELISA (coated anti-MuSK Fab, MuSK, IgG, anti-Fc HRP); competitor: 3D10a
# Experimental: as §2, §3
row,OD 450 nm [OD],Binder
1,0.049,B1
2,0.057,B2
3,0.008,B3
4,0.06,B4
